Columns and labels:
[1] = target: PE-labeled DR1 tetramers loaded with FVIII-2191-2220 (human) (UniProt P01903); assay: flow cytometry, DR1 tetramer staining of transduced CD4 T cells
[2] = target: PE-labeled DR1 tetramers loaded with FVIII-2191-2220 (human) (UniProt P01903); assay: flow cytometry, PE-labeled DR1 tetramer staining of peptide-expanded transduced T effectors
[3] = target: FVIII-2191-2220 presented on HLA-DR1 by irradiated DR1-PBMCs (human); assay: cell-based or functional assay
[4] = target: PE-labeled DR1 tetramers loaded with FVIII-2191-2220 (human) (UniProt P01903); assay: flow cytometry, DR1 tetramer staining of transduced naïve CD4 T cells

B1: FVIII C2-specific human T cell receptor (TCR17195) (TCR)
chain: RQVARVIVFLTLSTLSLAKTTQPISMDSYEGQEVNITCSHNNIATNDYITWYQQFPSQGPRFIIQGYKTKVTNEVASLFIPADRKSSTLSLPRVSLSDTAVYYCLVGDAPNSGNTPLVFGKGTRLSVIANIQNPDPAVYQLRDSKSSDKSVCLFTDFDSQTNVSQSKDSDVYITDKTVLDMRSMDFKSNSAVAWSNKSDFACANAFNNSIIPEDTFFPSPESSCDVKLVEKSFETDTNLNFQNLSVIGFRILLLKVAGFNLLMTLRLWSSRAKRGSGATNFSLLKQAGDVEENPGPMLLLLLLLGPGSGLGAVVSQHPSRVICKSGTSVKIECRSLDFQATTMFWYRQFPKKSLMLMATSNEGSKATYEQGVEKDKFLINHASLTLSTLTVTSAQPEDSSFYICSAHTRANYGYTFGSGTRLTVVEDLNKVFPPEVAVFEPSEAEISHTQKATLVCLATGFFPDHVELSWWVNGKEVHSGVSTDPQPLKEQPALNDSRYCLSSRLRVSATFWQNPRNHFRCQVQFYGLSENDEWTQDRAKPVTQIVSAEAWGRADCGFTSVSYQQGVLSATILYEILLGKATLYAVLVSALVLMAMVKRKDF
fold tetramer staining intensity over non-specific tetramer staining [1]: > 10 fold
percent tetramer+ [2]: 24%
expansion of GFP cells against culture with pOVA [3]: 50 fold
proliferation of GFP cells (dye dilution, 4 days) [3]: 100%
proportion of GFP cells after culture with FVIII-2191-2220 [3]: 61 to 81%
percent tetramer+ of the total CD4 population [4]: 0.2%
percent tetramer+ of the transduced cells [4]: < 5%
